What was measured:
cs201B = test: FRET titration and kinetics, labeled extended hinge vs peptide cs201B; format: binding
Description: (§1) AlexaFluor™ 555 C2 maleimide (donor) and AlexaFluor™ 647 C2 maleimide (acceptor) were purchased from ThermoFisherScientific. Stock solutions at −5 mM were prepared by dissolving 1 mg of each dye in 200 μl DMSO. Hinge variants containing two cysteines were expressed and purified as described above with the modification that 0.5 mM TCEP was used during lysis, IMAC and SEC, and that the buffer for initial SEC contained 20 mM sodium phosphate (PH 7.0) instead of Tris-HCl. After SEC, 500 μl hinge at a concentration of 50 μM was incubated with 500 μM of a single dye for controls or 250 μM each of two dyes. After 2 h incubation at room temperature, samples were purified by SEC using a buffer containing 20 mM Tris-HCl and 100 mM NaCl at pH 8.
(§2) The buffer for all FRET measurements was 20 mM Tris-HCl, 100 mM NaCl, 0.05% v/v TWEEN®20 at pH 8. Fluorescence spectra were recorded at room temperature using a FluoroMax™ spectrometer in a 1 cm×1 cm cuvette at a sample volume of 3 ml. FRET titrations and kinetics measurements were performed at 25° C. in 96-well plates (Corning 3686) using a Synergy Neo2™ plate reader. Excitation wavelength was 520 nm and emission wavelength was 665 nm (except for donor-donor controls for which emission wavelength was 555 nm, see FIG. 13B right column).
(§3) Titrations were carried out in 96-well format, with 4 replicates per plate and 24 data points per titration (23 steps of two-fold serial dilution of effector (peptide or 3hb) in the presence of double-labeled hinge at a constant concentration of 2 nM) with a final sample volume of 80 μl per well. […] The raw fluorescence signal (donor emission upon acceptor excitation) was fitted to the equation
(§4) Fitting was performed using the scipy.optimize.curve_fit python function (53). Uncertainties for KD values are standard deviation errors calculated from the covariance matrix of the fits. […]
(§5) For FRET kinetics experiments a 2× hinge solution and 8 different 2× effector solutions at different concentrations were prepared separately. […] Fluorescence signals S at each concentration were fitted individually to the equation […]

off-target peptides = test: Pairwise FRET titrations of labeled hinges with off-target peptides; format: binding; details: 2 nM labeled hinge; off-target peptides at μM concentrations; flat lines
Description: A critical feature of two-state switches in biology and technology is the coupling between the state control mechanism and the populations of the two states. To quantitatively investigate the thermodynamics and kinetics of the effector induced switching between the two states of our designed hinges, we used Forster resonance energy transfer (FRET). […]
(§6) The buffer for all FRET measurements was 20 mM Tris-HCl, 100 mM NaCl, 0.05% v/v TWEEN®20 at pH 8. Fluorescence spectra were recorded at room temperature using a FluoroMax™ spectrometer in a 1 cm×1 cm cuvette at a sample volume of 3 ml. FRET titrations and kinetics measurements were performed at 25° C. in 96-well plates (Corning 3686) using a Synergy Neo2™ plate reader. […]
as §3

TAMRA-cs094B = test: FP titration and kinetics, hinge vs TAMRA-cs094B; format: binding; details: Effector TAMRA-cs094B; method FP
Chain of TAMRA-cs094B (as listed by the source): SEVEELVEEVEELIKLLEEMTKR
Description: (§7) All FP measurements were performed at 25° C. in 96-well plates (Corning 3686) using a Synergy Neo2™ plate reader and a 530/590 nm filter cube. The buffer for all FP measurements was 20 mM Tris-HCl, 100 mM NaCl, 0.05% v/v TWEEN20 at pH 8. Titrations were carried out in 96-well format, with 4 replicates per plate and 24 data points per titration (23 steps of two-fold serial dilution of hinges in the presence of TAMRA-labeled peptide at a constant concentration between 0.1 nM and 1 nM) with a final sample volume of 80 μl per well. Titration plates were incubated overnight at room temperature before measuring to ensure complete equilibration. The polarization signal S (as calculated by the Neo2™ software) was fitted to the equation
(§8) where fAB is the fraction of peptide that is bound, Atot is the absolute hinge concentration, Btot is the absolute peptide concentration, S0 is the baseline polarization of free peptide, and S1 is the change in polarization upon complex formation.
(§9) Fitting was performed using the scipy.optimize.curve_fit python function (53). Uncertainties for KD values are standard deviation errors calculated from the covariance matrix of the fits. In cases where the fitted KD was lower than the concentration of the labeled peptide Btot, we report the KD as KD<Btot. […]

TAMRA-cs074B = test: Fluorescence polarization (FP) titration and kinetics, hinge vs TAMRA-cs074B; format: binding; details: Effector TAMRA-cs074B; method FP
Chain of TAMRA-cs074B (as listed by the source): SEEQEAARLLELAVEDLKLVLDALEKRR
Description: as §7, §8
Fitting was performed using the scipy.optimize.curve_fit python function (53). Uncertainties for KD values are standard deviation errors calculated from the covariance matrix of the fits. In cases where the fitted KD was lower than the concentration of the labeled peptide Btot, we report the KD as KD<Btot.
For FP kinetics experiments a 2× peptide solution and 8 different 2× hinge solutions at different concentrations were prepared separately. 40 μl of each hinge solution were mixed with 40 μl peptide solution using a multichannel pipet and the measurement was started immediately after mixing. Polarization signals S at each concentration were fitted individually to the equation
where S0 is the amplitude, S1 is the polarization at equilibrium, kapp is the apparent rate constant, t is the time after start of the measurement, and t0 is the dead time between mixing and start of the measurement. For each hinge-peptide pair, the apparent rate constants for 8 different concentrations are fitted to the equation
where koff and kon are observed off- and on rates and Atot is the absolute hinge concentration.

cs074B = test: FRET titration and kinetics, labeled extended hinge vs peptide cs074B; format: binding; details: Effector cs074B; method FRET
Description: as §1, with “After 2 h incubation at room temperature, samples were purified by SEC using a buffer containing 20 mM Tris-HCl and 100 mM NaCl at pH 8.” left out
as §6
(§10) Titrations were carried out in 96-well format, with 4 replicates per plate and 24 data points per titration (23 steps of two-fold serial dilution of effector (peptide or 3hb) in the presence of double-labeled hinge at a constant concentration of 2 nM) with a final sample volume of 80 μl per well. […] The raw fluorescence signal (donor emission upon acceptor excitation) was fitted to the equation […]

3hb05 = test: FRET titration, labeled extended hinge vs 3hb05; format: binding
Chain of 3hb05 (as listed by the source): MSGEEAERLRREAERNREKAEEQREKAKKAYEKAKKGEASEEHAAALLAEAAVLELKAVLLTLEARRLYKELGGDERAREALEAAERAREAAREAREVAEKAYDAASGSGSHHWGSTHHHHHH
Description: as §1, with “After 2 h incubation at room temperature, samples were purified by SEC using a buffer containing 20 mM Tris-HCl and 100 mM NaCl at pH 8.” left out
as §6, §10

cs221B = test: FRET titration and kinetics, labeled extended hinge vs peptide cs221B; format: binding
Chain of cs221B (as listed by the source): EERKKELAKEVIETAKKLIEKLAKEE
Description: as §1, with “After 2 h incubation at room temperature, samples were purified by SEC using a buffer containing 20 mM Tris-HCl and 100 mM NaCl at pH 8.” left out
as §6, §10

3hb21 = test: FRET titration and kinetics, labeled extended hinge vs 3hb21; format: binding
Chain of 3hb21 (as listed by the source): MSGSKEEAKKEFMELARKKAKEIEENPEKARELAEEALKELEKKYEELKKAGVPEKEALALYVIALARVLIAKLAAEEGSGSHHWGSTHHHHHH
Description: as §1, §2, §3, §4, §5

[1] = system: original peptides fused to superfolder green fluorescent protein (sfGFP); test: SEC binding experiments with original peptides fused to sfGFP; details: FIG. 17C
Description: (§11) Individual hinge and sfGFP-fused peptides or 3hb were diluted in 20 mM Tris pH 8, 100 mM NaCl and mixed at approximately 1:1 concentrations. 0.5-1 mL of the resulting samples were injected onto a Superdex™ 200 Increase 10/300 GL columns and the absorbance at 230 nm was used as a readout for binding. For sfGFP-fused peptides, 473 nm was also used as readout. Mixtures were at a total concentration of 2. μM or higher.

TAMRA-cs269B = test: FP titration and kinetics, hinge vs TAMRA-cs269B; format: binding; details: Effector TAMRA-cs269B; method FP
Chain of TAMRA-cs269B (as listed by the source): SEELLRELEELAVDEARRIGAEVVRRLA
Description: as §7, §8, §9

three-helix bundles = test: SEC binding experiments with three-helix bundles; details: FIG. 16A
Description: as §11

Chain of cs201B (as listed by the source): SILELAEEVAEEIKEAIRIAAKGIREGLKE

B1: cs201F: extended hinge cs201 for FRET labeling, SEQ ID NO:30 (protein)
chain: MSGDEEVQEAVERAEELREEAEELIKKARKTGDPELLRKALEALEEAVRAVEEAICRNPDNDEAVETAVRLARELKKVAEELQERAKKTGDPELLKLALRALEVAVRAVELAIKSNPDNDEAVETAVRLARELKKVAEELQERAKKTGDPELLKLALRALEVAVRAVELAIKRNPDNEEAIKTALRLARELRKVAKELIERARKTGDAELLKKALEAARVAVEAVRLAAEYNKENAEKMAELLVELAELAREVADVLIELAEKTGDPELLKKALEVLEEAVEAVRLAIEYDPDHDEAVETAVRLARELKKVAEELQERAKKTGDPELLKLALRALEVAVRAVELAIKSNPDNEEAVETAKRLAEELRKVAELLEERAKETGDPCLQELAKRAKEVADRARELAKKSNPNNGSGSHHWGSTHHHHHH
Question: What does the source list for B1?
Answer: reversibility of hinge conformational change (cs201B; 30 nM FRET-labeled hinge, peptide added, then excess unlabeled hinge cs201): fully reversible; kon (cs201B; Effector cs201B, method FRET): 4500 M⁻¹ s⁻¹; off-target FRET titration outcome (off-target peptides): no conformational change

B2: cs094: designed hinge protein, SEQ ID NO:5 (protein)
chain: MSGDEEERLRQEVEKAEKELEKLAKQSTDEEVRKMVREVAKQLRRLAEEAIRQKDDEALRQATEVVKMVQEAVKVAQKTTDQKVILLLLAVALVAIKVAQLAIRSDDTEALRLARIVIRAVQLLVKLVQKTTDPEVRRTALRVAELLAKLAKEAIERNDEEALREASEVVKEVQELVKEAEKSTDEEEIRELLQRAEERIREAQERIREGSGSHHWGSTHHHHHH
Question: With B2 as the molecule, how does the kon (TAMRA-cs094B) read?
Answer: 9400 M⁻¹ s⁻¹

B3: cs074F: extended hinge cs074 for FRET labeling, SEQ ID NO:29 (protein)
chain: DEEVQEAVERAEELREEAEELIKKARKTGDPELLRKALEALECAVRAVEEAIKRNPDNDEAVETAVRLARELKKVAEELQERAKKTGDPELLKLALRALKVAVRAVKLAIKSNPDNEEAVKTAVRLARELLKVAEELKERAEKTGDPRLLLLAAEAIAWAIEAVFLAAKASENTEGALEAARAAVKLAEVAKRIAKLLQRDAKKEGDPELLKLALRALELAVRAVELAIKENPDNDEAVETAVRLARELKKVAEELQERAKKTGDPELLKLALRALEVAVRAVELAIKSNPDNEEAVETAKRLAEELRKVAELLEERACETGDPELQELAKRAKEVADRARELAKKSNPNNGSHHHHHH
Question: How did the kon (TAMRA-cs074B) turn out when B3 was run?
Answer: 100000 M⁻¹ s⁻¹

Question: And the “off-target binding compared to the on-target interaction for cs074B” value (cs201B; FRET titration, 2 nM labeled hinge, peptide cs201B)?
Answer: three orders of magnitude weaker

Question: And the kon (cs074B)?
Answer: 170000 M⁻¹ s⁻¹

Question: And the “affinity compared with the original peptide cs074B” value (3hb05)?
Answer: similar

Question: And the “off-target binding compared to the on-target interaction for cs074B” value (cs221B; FRET titration, 2 nM labeled hinge, peptide cs221B)?
Answer: two orders of magnitude weaker

B4: cs221F: extended hinge cs221 for FRET labeling, SEQ ID NO:31 (protein)
chain: MSGEMVEEIEKLAEELAKKTKDCEVKKLAKKAAELAKKSTDEMKKEIVKDALELALRTKDEEVIRLALKAAVLAAESDDEEVKEVVKKALEAALKSKDEEVIRLLLLAAVLAAAAARSGSPEEKLEIAKKALELAMKSKDEEVIRLALLAAVLAARSDDEEVLKIVKKALELAMESKDVEVIRLALEAAVLAARSTDPEKKKCVYEALEKAMESKDEEEIKKELKAAVEKARSTEGSGSHHWGSTHHHHHH
Question: B4 was tested. Which kon (3hb21; Effector 3hb21, method FRET, 5 nM hinge) did it give?
Answer: 13000 M⁻¹ s⁻¹

Question: What about the “binding compared with the original peptide cs221B” value (3hb21; FRET) of the same molecule?
Answer: significantly tighter

Question: What about the “KD, times stronger than the KD of the original peptide cs221B” value (3hb21; FRET titration, 2 nM hinge) of the same molecule?
Answer: at least 20 times

Question: And the “off-target FRET titration outcome” value (off-target peptides)?
Answer: no conformational change

Question: What about the kon (cs221B; Effector cs221B, method FRET) of the same molecule?
Answer: 2600 M⁻¹ s⁻¹

B5: cs269: designed hinge protein, SEQ ID NO:14 (protein)
chain: MSGDEERVRELAERASREAERAVRSGSEESLEEALRNVEELIRKSDSEEARVRVAEAAVRAAAEAAARSGTVEAAAVAVIFTARVLQIVSSSEEAVVRVLAAAAAAAARVAVELGTEEALETALRFVELLVRLADSDEARQRVLRSASESARRSAEESGSERAREVAERFRERIERNQGSGSHHWGSTHHHHHH
Question: Which “SEC binding experiment with sfGFP-fused original peptide” value [1] does the source give for B5 here?
Answer: higher-order peaks

Question: What about the kon (TAMRA-cs269B) of the same molecule?
Answer: 2500 M⁻¹ s⁻¹

B6: cs074: de novo designed two-state hinge protein, SEQ ID NO:4 (protein)
chain: MSGDEEVQEAVERAEELREEAEELIKKARKTGDPELLRKALEALKEAVRAVKEAIKRNPDNEEAVKTAVRLARELLKVAEELKERAEKTGDPRLLLLAAEAIAWAIEAVFLAAKASENTEGALEAARAAVKLAEVAKRIAKLLQRDAKKEGDPELLKLALRALELAVRAVELAIKENPDNEEAVETAKRLAEELRKVAELLEERAKETGDPELQELAKRAKEVADRARELAKKSNPNNGSGSHHWGSTHHHHHH
Question: How did the “SEC binding to three-helix bundles” value (three-helix bundles) turn out when B6 was run?
Answer: clear binding

Question: And the kon (TAMRA-cs074B)?
Answer: 64000 M⁻¹ s⁻¹

— patent US20250236644A1, “De Novo Designed Stimulus-responsive Two-state Hinge Proteins” (University of Washington, priority 2024, published 2025)
